According to article PMC6461989:

Target: human active plasmin (human)
Sequence (P00747 20-580, chain 1 of 2): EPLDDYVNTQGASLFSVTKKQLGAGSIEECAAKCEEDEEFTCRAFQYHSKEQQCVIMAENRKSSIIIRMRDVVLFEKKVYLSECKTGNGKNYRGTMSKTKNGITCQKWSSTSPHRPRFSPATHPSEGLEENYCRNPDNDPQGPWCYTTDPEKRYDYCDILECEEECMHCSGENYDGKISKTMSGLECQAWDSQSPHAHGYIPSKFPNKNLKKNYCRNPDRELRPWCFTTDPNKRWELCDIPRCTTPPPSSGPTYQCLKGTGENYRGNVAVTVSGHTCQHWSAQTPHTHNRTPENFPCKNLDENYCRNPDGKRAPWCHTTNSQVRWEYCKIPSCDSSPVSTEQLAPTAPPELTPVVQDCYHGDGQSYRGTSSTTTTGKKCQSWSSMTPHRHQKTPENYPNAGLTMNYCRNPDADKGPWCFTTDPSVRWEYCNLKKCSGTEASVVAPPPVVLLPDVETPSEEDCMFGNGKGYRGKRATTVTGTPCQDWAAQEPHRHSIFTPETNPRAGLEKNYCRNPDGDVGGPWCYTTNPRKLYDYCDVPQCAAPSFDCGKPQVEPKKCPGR
Sequence (P00747 581-810, chain 2 of 2): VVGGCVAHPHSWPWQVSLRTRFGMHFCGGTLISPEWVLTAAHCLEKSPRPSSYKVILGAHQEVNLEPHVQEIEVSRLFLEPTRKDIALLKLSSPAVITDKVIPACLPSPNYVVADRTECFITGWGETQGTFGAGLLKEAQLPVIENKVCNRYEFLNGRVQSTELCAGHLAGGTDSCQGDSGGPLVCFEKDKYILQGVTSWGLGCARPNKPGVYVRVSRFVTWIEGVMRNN

| inhibition of plasmin activity in the presence of equimolar uPA and plasminogen, ratio of HAI-2 to uPA/plasminogen 1:1 (~20% inhibition) to 10:1 (Supplementary Figure S13A) [%] | inhibition of plasmin activity, high ratio of HAI-2 to plasmin (Supplementary Figure S13B) [%] | inhibition of plasmin activity, low ratio (~40%) to high ratio of α-2-antiplasmin to plasmin (Supplementary Figure S13B) [%] | Binder |
| --- | --- | --- | --- |
| 75 | 66 |  | recombinant HAI-2 (rHAI-2) proteins containing the extracellular region of HAI-2 (domain or fragment) ADRERSIHDFCLVSKVVGRCRASMPRWWYNVTDGSCQLFVYGGCDGNSNNYLTKEECLKKCATVTENATGDLATSRNAADSSVPSAPRRQDSEDHSSDMFNYEEYCTANAVTGPCRASFPRWYFDVERNSCNNFIYGGCRGNKNSYRSEEACMLRCFRQQENPPLPLGSK |
|  |  | > 99 | α-2-antiplasmin (natural protein) NQEQVSPLTLLKLGNQEPGGQTALKSPPGVCSRDPTPEQTHRLARAMMAFTADLFSLVAQTSTCPNLILSPLSVALALSHLALGAQNHTLQRLQQVLHAGSGPCLPHLLSRLCQDLGPGAFRLAARMYLQKGFPIKEDFLEQSEQLFGAKPVSLTGKQEDDLANINQWVKEATEGKIQEFLSGLPEDTVLLLLNAIHFQGFWRNKFDPSLTQRDSFHLDEQFTVPVEMMQARTYPLRWFLLEQPEIQVAHFPFKNNMSFVVLVPTHFEWNVSQVLANLSWDTLHPPLVWERPTKVRLPKLYLKHQMDLVATLSQLGLQELFQAPDLRGISEQSLVVSGVQHQSTLELSEVGVEAAAATSIAMSRMSLSSFSVNRPFLFFIFEDTTGLPLFVGSVRNPNPSAPRELKEQQDSPGNKDFLQSLKGFPRGDKLFGPDLKLVPPMEEDYPQFGSPK |
